Target: S. pombe Dcp2(1–243) (S. pombe) (UniProt O13828)
UniProt O13828, sequence (O13828 1-243): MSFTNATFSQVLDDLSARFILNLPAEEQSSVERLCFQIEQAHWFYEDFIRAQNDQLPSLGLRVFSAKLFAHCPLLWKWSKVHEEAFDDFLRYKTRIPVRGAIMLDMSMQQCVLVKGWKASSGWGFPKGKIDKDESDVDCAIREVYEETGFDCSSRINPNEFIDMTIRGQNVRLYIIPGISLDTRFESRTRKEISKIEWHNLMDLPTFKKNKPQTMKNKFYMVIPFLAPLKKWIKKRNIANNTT

kmax of single-turnover in vitro decapping of a capped 29-mer RNA by Sp Dcp1–Dcp2(1–243) (m7 in complex with m6), with and without Edc1(155–180) peptide (50 µM): 10 fold
Substance: Sp Edc1 (155–180) peptide
